Source: EP4299124A1 (UNIVERSITE DE MONTPELLIER, dated 2024)

B1: IGF-1201 (IGF-1168 GS IGF-1159) (bispecific antibody)
chain: QVQLVQSGGGLVQAGGSLRLSCAASVRFFSINTMGWYRQAPGKQRELVADITSSGSTNYADSGKGRFTISRDNAKNTVYLQMNRLKPEDTAVYYCHADYKYTTHNTAWGQGTQVTVSSGGGGSGGGGSGGGGSQVQLVQSGGGLVQAGGSLRLSCAASGRTFSSFAMAWFRQAPGKEREFVAAISWSGSTGHADSVKGRFTITRDNAKNTVFLQMNSLKPEDTAVYYCALGKGSSYYYSPSGYDYWGQGTQVTVSS
B2: IGF-1251 (IGF-1159 GS IGF-1168) (bispecific antibody)
chain: QVQLVQSGGGLVQAGGSLRLSCAASGRTFSSFAMAWFRQAPGKEREFVAAISWSGSTGHADSVKGRFTITRDNAKNTVFLQMNSLKPEDTAVYYCALGKGSSYYYSPSGYDYWGQGTQVTVSSGGGGSGGGGSGGGGSQVQLVQSGGGLVQAGGSLRLSCAASVRFFSINTMGWYRQAPGKQRELVADITSSGSTNYADSGKGRFTISRDNAKNTVYLQMNRLKPEDTAVYYCHADYKYTTHNTAWGQGTQVTVSS
B3: biparatopic IGF1202 (construct IGF1168-linker sequence L1-IGF1159) (bispecific antibody)
chain: QVQLVQSGGGLVQAGGSLRLSCAASVRFFSINTMGWYRQAPGKQRELVADITSSGSTNYADSGKGRFTISRDNAKNTVYLQMNRLKPEDTAVYYCHADYKYTTHNTAWGQGTQVTVSSEPKIPQPQPKPQPQPQPQPQPKPQPKPEPQVQLVQSGGGLVQAGGSLRLSCAASGRTFSSFAMAWFRQAPGKEREFVAAISWSGSTGHADSVKGRFTITRDNAKNTVFLQMNSLKPEDTAVYYCALGKGSSYYYSPSGYDYWGQGTQVTVSSLEHHHHHH
B4: IGF-1252 (IGF-1159 HcAb IGF-1168) (bispecific antibody)
chain: QVQLVQSGGGLVQAGGSLRLSCAASGRTFSSFAMAWFRQAPGKEREFVAAISWSGSTGHADSVKGRFTITRDNAKNTVFLQMNSLKPEDTAVYYCALGKGSSYYYSPSGYDYWGQGTQVTVSSEPKIPQPQPKPQPQPQPQPQPKPQPKPEPQVQLVQSGGGLVQAGGSLRLSCAASVRFFSINTMGWYRQAPGKQRELVADITSSGSTNYADSGKGRFTISRDNAKNTVYLQMNRLKPEDTAVYYCHADYKYTTHNTAWGQGTQVTVSS
B5: IGF-1262 (IGF-1168 HcAb IGF-1168) (VHH)
chain: QVQLVQSGGGLVQAGGSLRLSCAASVRFFSINTMGWYRQAPGKQRELVADITSSGSTNYADSGKGRFTISRDNAKNTVYLQMNRLKPEDTAVYYCHADYKYTTHNTAWGQGTQVTVSSEPKIPQPQPKPQPQPQPQPQPKPQPKPEPQVQLVQSGGGLVQAGGSLRLSCAASVRFFSINTMGWYRQAPGKQRELVADITSSGSTNYADSGKGRFTISRDNAKNTVYLQMNRLKPEDTAVYYCHADYKYTTHNTAWGQGTQVTVSS
notes: Used His-tagged in the assay
B6: IGF-1159 nanobody (VHH)
VHH: QVQLVQSGGGLVQAGGSLRLSCAASGRTFSSFAMAWFRQAPGKEREFVAAISWSGSTGHADSVKGRFTITRDNAKNTVFLQMNSLKPEDTAVYYCALGKGSSYYYSPSGYDYWGQGTQVTVSS
B7: IGF-1261 (IGF-1168 GS IGF-1168) (VHH)
chain: QVQLVQSGGGLVQAGGSLRLSCAASVRFFSINTMGWYRQAPGKQRELVADITSSGSTNYADSGKGRFTISRDNAKNTVYLQMNRLKPEDTAVYYCHADYKYTTHNTAWGQGTQVTVSSGGGGSGGGGSGGGGSQVQLVQSGGGLVQAGGSLRLSCAASVRFFSINTMGWYRQAPGKQRELVADITSSGSTNYADSGKGRFTISRDNAKNTVYLQMNRLKPEDTAVYYCHADYKYTTHNTAWGQGTQVTVSS
notes: Used His-tagged in the assay

What follows are binders tested against T1, rat mGlu2 SNAP-tagged receptor (rat, UniProt P31421 19-872, SNAP tag labelled with SNAP-Lumi4-Tb) (assay: TR-FRET on HEK-293 cells with SNAP-tagged rat mGlu2, anti-6His-d2; inactive conformation).
T1 sequence (P31421 19-872): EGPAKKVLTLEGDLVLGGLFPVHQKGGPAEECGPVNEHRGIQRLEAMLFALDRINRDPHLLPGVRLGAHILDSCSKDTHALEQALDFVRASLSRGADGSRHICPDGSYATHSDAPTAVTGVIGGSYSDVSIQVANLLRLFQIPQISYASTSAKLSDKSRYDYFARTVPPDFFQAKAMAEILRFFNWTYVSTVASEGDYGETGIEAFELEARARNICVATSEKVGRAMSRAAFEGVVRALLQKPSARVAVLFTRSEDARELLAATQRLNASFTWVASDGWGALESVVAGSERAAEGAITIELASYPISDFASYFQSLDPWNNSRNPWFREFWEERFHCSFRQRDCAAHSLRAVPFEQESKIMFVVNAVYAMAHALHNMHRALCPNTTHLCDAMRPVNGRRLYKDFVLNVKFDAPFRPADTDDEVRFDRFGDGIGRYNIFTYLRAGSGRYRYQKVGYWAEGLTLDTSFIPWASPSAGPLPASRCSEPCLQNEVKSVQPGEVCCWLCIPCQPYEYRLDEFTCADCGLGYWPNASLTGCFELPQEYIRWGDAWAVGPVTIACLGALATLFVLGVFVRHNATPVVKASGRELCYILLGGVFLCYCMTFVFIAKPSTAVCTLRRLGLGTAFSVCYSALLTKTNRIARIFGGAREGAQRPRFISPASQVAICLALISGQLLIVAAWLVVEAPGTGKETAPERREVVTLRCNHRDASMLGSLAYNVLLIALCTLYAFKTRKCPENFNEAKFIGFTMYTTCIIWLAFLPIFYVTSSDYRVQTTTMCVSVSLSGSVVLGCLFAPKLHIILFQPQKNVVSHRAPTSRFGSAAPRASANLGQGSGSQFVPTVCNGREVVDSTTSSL

| pKd | Binder |
| --- | --- |
| 8.95 pKd | B1 |
| 8.54 pKd | B2 |
| 8.87 pKd | B3 |
| 8.49 pKd | B4 |

What follows are binders tested against T1, rat mGlu2 SNAP-tagged receptor (assay: TR-FRET on HEK-293 cells with SNAP-tagged rat mGlu2, anti-6His-d2; active conformation).

| pKd | Binder |
| --- | --- |
| 9.34 pKd | B1 |
| 8.23 pKd | B5 |
| 8.99 pKd | B2 |
| 8.46 pKd | B6 |
| 9.27 pKd | B3 |
| 8.77 pKd | B4 |
| 8.51 pKd | B7 |

These binders were tested against T1, rat mGlu2 SNAP-tagged receptor (assay: cell-based or functional assay).

| PAM effect G protein coupling, pEC50 | Binder |
| --- | --- |
| 8.25 pEC50 | B1 |
| 7.2 pEC50 | B5 |
| 7.65 pEC50 | B2 |
| 6.96 pEC50 | B6 |
| 8.81 pEC50 | B3 |
| 7.94 pEC50 | B4 |
| 7.62 pEC50 | B7 |
